# Values of other authors as cited in article PMC8463877.
# Tests used:
# [1] = biological target: apoC-II fibrils (Homo sapiens) (UniProt P02655)
# [2] = biological target: Aβ42 fibrils Aβ1-42 (Homo sapiens) (UniProt P05067)
# Sequence of Aβ42 fibrils Aβ1-42 (Homo sapiens) (P05067 1-42): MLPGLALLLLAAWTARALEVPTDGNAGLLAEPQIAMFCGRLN
# Sequence of αB-crystallin (P02511 whole entry): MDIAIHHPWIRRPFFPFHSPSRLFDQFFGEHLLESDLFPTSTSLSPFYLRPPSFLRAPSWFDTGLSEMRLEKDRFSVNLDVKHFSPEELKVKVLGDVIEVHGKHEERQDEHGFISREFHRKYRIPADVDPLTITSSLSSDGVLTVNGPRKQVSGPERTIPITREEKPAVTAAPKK
# Sequence of apoC-II fibrils (Homo sapiens) (P02655 23-101): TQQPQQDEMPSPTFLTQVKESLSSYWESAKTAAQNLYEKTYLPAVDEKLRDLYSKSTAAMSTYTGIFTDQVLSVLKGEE
substance,measurement,setting,value
αB-crystallin (from UniProt P02511),Kd,[1],5.4 µM
same,Kd,[2],2.1 µM
